Common to all, as to test: high-throughput RNA pulldown from lysate on Ni-NTA beads; HRP: 50 mM Tris pH 8, 150 mM NaCl, 1 mM beta-mercaptoethanol, 50 ug/ml BSA, 3 ug/ml yeast RNA, 0.5% heparin; ITC and FP: Tris pH 8, 200 mM KCl, 5% glycerol; MST: 50 mM Tris pH 8, 200 mM NaCl, 1 mM DTT, BSA, heparin, 0.05% Tween 20
Holding throughout (conditions): tags: N-terminal His-eGFP

Series [1] has as its target T1, GFP-9S library array, motif 4 ND N98G;D124P (synthetic construct, N98G;D124P).
T1 chain: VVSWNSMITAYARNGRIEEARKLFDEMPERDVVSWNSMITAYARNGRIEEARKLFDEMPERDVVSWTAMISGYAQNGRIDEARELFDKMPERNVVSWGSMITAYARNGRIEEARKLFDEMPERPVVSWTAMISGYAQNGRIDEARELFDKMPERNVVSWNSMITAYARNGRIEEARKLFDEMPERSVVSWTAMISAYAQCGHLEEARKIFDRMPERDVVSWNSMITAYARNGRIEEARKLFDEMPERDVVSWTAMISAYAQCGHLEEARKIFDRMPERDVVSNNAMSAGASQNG

For series [2], the target named is T2, GFP-9S library array, motif 4 ND N98I;D124E (synthetic construct, N98I;D124E).
T2 chain: T1 chain with G98I, P124E

Series [3] concerns the target T3, GFP-9S library array, motif 4 ND N98P;D124G (synthetic construct, N98P;D124G).
T3 chain: T1 chain with G98P, P124G

In series [4] the target is T4, GFP-9S library array, motif 4 ND N98E;D124L (synthetic construct, N98E;D124L).
T4 chain: T1 chain with G98E, P124L

Series [5] concerns the target T5, GFP-9S library array, motif 4 ND N98R;D124P (synthetic construct, N98R;D124P).
T5 chain: T1 chain with G98R

Numbering of substitutions follows the chain as printed.

B1: IR-rpoA-U (ssRNA)
RNA: AUUAUACGUGA
With B1, the Kd (usually the concentration at which binding is half-saturated) in series [1] (label: 5' IRDye 800CW) was determined as 0.128 µM; in series [2] (label: 5' IRDye 800CW) it was 0.0431 µM; in series [3] (label: 5' IRDye 800CW), 0.778 µM; in series [4] (label: 5' IRDye 800CW), 0.196 µM; in series [5] (label: 5' IRDye 800CW), 0.163 µM.

B2: Cy5-rpoA-G (ssRNA)
RNA: AUUAGACGUGA
As for B2, the Kd in series [1] (label: 5' Cy5) worked out at 0.127 µM; in series [2] (label: 5' Cy5), 0.0786 µM; in series [3] (label: 5' Cy5), 0.262 µM; in series [4] (label: 5' Cy5) it was 0.069 µM; in series [5] (label: 5' Cy5) it was 0.151 µM.

B3: Cy5-rpoA (ssRNA)
RNA: AUUACACGUGA
Consider B3, for which the equilibrium dissociation constant (Kd) turned out to be 0.0859 µM in series [1] (label: 5' Cy5); 0.0972 µM in series [2] (label: 5' Cy5); 0.345 µM in series [3] (label: 5' Cy5); 0.0631 µM in series [4] (label: 5' Cy5); 0.143 µM in series [5] (label: 5' Cy5).

B4: IR-rpoA-A (ssRNA)
RNA: AUUAAACGUGA
For the molecule B4, the dissociation constant (Kd) in series [1] (label: 5' IRDye 800CW) is 0.179 µM; in series [2] (label: 5' IRDye 800CW) it was 0.0486 µM; in series [3] (label: 5' IRDye 800CW) it was 0.735 µM; in series [4] (label: 5' IRDye 800CW), 0.147 µM; in series [5] (label: 5' IRDye 800CW) it was 0.335 µM.

Values taken from PMC8809517, “Cofactor-independent RNA editing by a synthetic S-type PPR protein”.
